Results: PMC8026080, “Functional regulation of the structure-specific endonuclease FEN1 by the human cytomegalovirus protein IE1 suggests a role for the re-initiation of stalled viral replication forks” (PLoS Pathogens, 2021)

Assays:
FLAG-FEN1 (full length) [1] = target: FLAG-FEN1 (full length) (UniProt P39748)
FLAG-FEN1 (full length) [2] = target: FLAG-FEN1 (full length) (UniProt P39748 1-380); assay: cell-based or functional assay
Chain of FLAG-FEN1 (full length) (UniProt P39748 1-380) (P39748 whole entry): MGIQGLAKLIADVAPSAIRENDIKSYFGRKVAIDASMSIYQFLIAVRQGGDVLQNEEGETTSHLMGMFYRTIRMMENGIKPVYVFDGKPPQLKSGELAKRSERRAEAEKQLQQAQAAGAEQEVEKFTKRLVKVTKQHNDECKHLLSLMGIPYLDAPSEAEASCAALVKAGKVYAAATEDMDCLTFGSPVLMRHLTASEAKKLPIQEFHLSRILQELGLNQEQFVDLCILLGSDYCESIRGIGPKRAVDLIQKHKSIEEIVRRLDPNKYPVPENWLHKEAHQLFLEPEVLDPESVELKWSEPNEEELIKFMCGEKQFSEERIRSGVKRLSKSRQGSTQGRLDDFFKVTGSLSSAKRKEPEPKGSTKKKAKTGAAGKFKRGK

Chain of FLAG-FEN1 (full length) (UniProt P39748) (P39748 whole entry): as above

| Molecule | normalized pFEN1 (Ser187)/FEN1 ratio by densitometry of Western blots, 293T cells transfected with FLAG-FEN1 and untagged IE1 wt (FEN1 alone set to 1) (FLAG-FEN1 (full length) [1]) | normalized pFEN1 (Ser187)/FEN1 ratio by densitometry of Western blots, 293T cells transfected with FLAG-FEN1 and full-length IE1 5x mut (FEN1 alone set to 1) (FLAG-FEN1 (full length) [2]) |
| --- | --- | --- |
| HCMV immediate early protein 1 (IE1) expressed in AD169-infected cells (natural protein) | 2.4 | – |
| Myc-IE1 1–382 5x mut (domain or fragment, human cytomegalovirus, UniProt P13202 1-382, looked up) MESSAKRKMDPDNPDEGPSSKVPRPETPVTKATTFLQTMLRKEVNSQLSLGDPLFPELAEESLKTFEQVTEDCNENPEKDVLAELVKQIKVRVDMVRHRIKEHMLKKYTQTEEKFTGAFNMMGGCLQNALDILDKVHEPFEEMKCIGLTMQSMYENYIVPEDKREMWMACIKELHDVSKGAANKLGGALQAKARAKKDELRRKMMYMCYRNIEFFTKNSAFPATTNGCSQAMAALQALPQCSPDEIMAYAQKIFKILDEERDKVLTHIDHIFMDILTTCVETMCAEYKVTSDACMATMYGGISLLSEFCAVLCCYVLEETSVMLAKRPLITKPEVISVMKRRIEEICMKVFAQYILGADPLRVCSPSVDDLRAIAEESDEEE | – | 1.5 ratio |
